From the DeepSol protein solubility set

Assay: soluble on expression in E. coli; label from the status in PepcDB or PDB records

MPTIKDYYLPKRPTLLFSLHPEPTQAIINGTKILEYRRRFFARPFQAFVYTTGDNGGIQLFLRCDQGLQLVPEQLALVGALLQHDAPTTTAAYFEGAKAGLALPITAFTTLPNIPLAQLRRQFENFVTPRSYVFLDQPDRQAQLDWLLTQPCESLTILDWRKRYAALATLLQKLEHHHHHH
soluble on expression in E. coli: not soluble

MGSSHHHHHHSSGLVPRGSHMYLINQNGWIEVICGSMFSGKSEELIRRVRRTQFAKQHAIVFKPCIDNRYSEEDVVSHNGLKVKAVPVSASKDIFKHITEEMDVIAIDEVQFFDGDIVEVVQVLANRGYRVIVAGLDQDFRGLPFGQVPQLMAIAEHVTKLQAVCSACGSPASRTQRLIDGEPAAFDDPIILVGASESYEPRCRHCHAVPTKQR
soluble on expression in E. coli: soluble

ATALQCFCHLCTKDNFTCVTDGLCFVSVTETTDKVIHNSMCIAEIDLIPRDRPFVCAPSSKTGSVTTTYCCNQDHCNKIELPTTV
soluble on expression in E. coli: soluble

MSLQEELSVLLKAQYPLIYLVTSEEERAEQAVYRIVQEVTRHQRLFVWTVTHGFREYGVAQQKTHHNTMSPEAAIEWVVRQEPGIFIFKDLHPFISSPAVTRWLREAIASFKGTEKAIILMSPYQETPIELEKDVVVLDFALPDLVTLDGVLGQQLGKSRHALGEDSREKLLKAALGLTKDEAEKVYRKAYVKAGQLTEGEVEIVLSEKKQMIRRNEGHHHHHH
soluble on expression in E. coli: soluble

MGMRLICLNGWGGKLHDKLVPYIASSDPDILCLQEVVHTPAATQDWLSYRDHGVELPQRANFFRDVAEALPDHVAIFCPAAQGDLWQGETRYPSQFGLATFVRKSIAIIAQAQGFVHGVFSADGYGNHPRSRTAHAIRVFDFTTGQPVVIAHMHGLRDLEGKHDIPARLHQAKRLVQFVKNIAEDGDRVIVCGDFNVLPDSRTFAVLNELDLVELVTTRGFTDTRTSHYAKPNRYADYLLVNPAVKVSQFDVVRQPEVSDHCPLLLEFSMAGDPLEHHHHHH
soluble on expression in E. coli: not soluble

HGPASRLLHRHIREQLKDLKEVSHESLVVGAVENAFQLMDEQMARERRGHQVEGGCCALVVIYLLGKVYVANAGDSRAIIVRNGEIIPMSREFTPETERQRLQLLGFLKPELLGSEFTHLEFPRRVLPKELGQRMLYRDQNMTGWAYKKIELEDLRFPLVCGEGKKARVMATIGVTRGLGDHSLKVCSSTLPIKPFLSCFPEVRVYDLTQYEHCPDDVLVLGTDGLWDVTTDCEVAATVDRVLSAYEPNDHSRYTALAQALVLGARGTPRDRGWRLPNNKLGSGDDISVFVIPLGGPGSYSVRASSPSPL
soluble on expression in E. coli: not soluble

MFKKFTREDVHSRSKVKSSIQRTLKAKLVKQYPKIEDVIDELIPKKSQIELIKCEDKIQLYSVDGEVLFFQKFDELIPSLKLVHKFPEAYPTVQVDRGAIKFVLSGANIMCPGLTSAGADLPPAPGYEKGTIVVINAENKENALAIGELMMGTEEIKSVNKGHSIELIHHLGDPLWNFSVE
soluble on expression in E. coli: not soluble

MAHHHHHHMCLLDVDEYKHTDTPEPRGEILLRGPFLFKGYYMQEKLTREALDEDGWFHTGDVGSITTHGRLRIIGRVKALAKNVLGEYIALEALESMYAHNALCMPNGVCVLVHPARSYICALVLTDETKAMMFAKEHGIEGSYPDILRDPAFQRKATESMQATARKADRQKFECVRHVRVVGDEWTPENEILTAAGKLKRREIDKRYADVIQLLFVEEC
soluble on expression in E. coli: not soluble

MAHHHHHHMSASPQLTRELSEDLLAGRYECVVCSEPVGHRQELWACSCCYGVFHLPCIRFWADSQMKARDRQLQSTSGVAVRGELERFRCPLCQSFKDKDSLAVYQCYCGKTAKPPADAMLVPGSCGQPCERRQADPCCPHRCTLLCHPGPCPACTRVREQACWCGKHSKTVGCSSSIHGYECDEACGKLLDCGEHRCKAPCHEGVCPVCTVMVTEKCYCGATVRTRRCGAAPPAFAGAAATAAADDRAAGDAGAGASVSGFRCAHHCEKKRDCDQHVCGMLCHPGLCEKCYRTPQRQKFCPCGKTRVQVERTSCMDPVPSCGLPCELPLPCGHLCWLTCHDETPCAPCKETVTVPCACGSRHVSSPCFCQYLPESEWEAARVQCGLPTDSLPVSVPPKCNQVCRHMLSCHKHRCTMTCCTDAEHTCLQICIRKLACGVHQCGRLCHQGKCPPCAHVSYERLYCRCRKTWVDPPVPCGMRPPQCNHPCSIPRPCGHPPNHPCHIEAECPKCVVLEEKPCASHQKPMPFHMPCYKKEISCGRKCGKNLPCCGKFCDLVCHIGPCEHDCAKSFPTLADVLKRGKGAAA
soluble on expression in E. coli: not soluble

FEELAKQIKLAKTPRLLISLKAEVPMAIGWLKPVVLLPASMVTGLNAAQLEMLILHELAHIRRHDYLVNFLQTLIELLFFFHPSVHWIGKQMRNEREYCSDDIAVQHCGDAIAYAHTLTDTASLCAKNHFHTIPTMAMAASGGDL
soluble on expression in E. coli: not soluble

MNILLANPRGFCAGVDRAISIVELALEVHGAPIYVRHEVVHNRFVVDDLKAKGAIFVEELDEVPDSAIVIFSAHGVSQAVRQEAKRRGLKVFDATCPLVTKVHMQVARASKKGTKAILIGHQGHPEVIGTMGQYYNEQAGIFLVETVEDIANLPIHHHEDLTFMTQTTLSVDDTSGMIEALKNKYPAIQGPRKNDICYATTNRQQAVRELAKQAQLVLVVGSKNSSNSNRLAELASRMGVLAKLIDGPQDILPEWLDNVETIGITAGASAPEILVQSVVAHLQTLGATSVANLVGCEENMVFEVPKELRVREVKMAGDPLEHHHHHH
soluble on expression in E. coli: not soluble

GPGSMFILADQLALPLPRSPLFFDVFDFSLEHTAMSQEAGCDTKGGGSTVTSVTAGTSGKHEETPVVTEDSSFVYACRLCRRILFTHEEIMPHSADSSSKGPKAFGRRGAPKQQSDQQNAGVCTSYFLNPDVSIWVAAESREAHCESGGTSVLPDTVYCPNNSCSAKIGTQSWVGSQCSCGVWVTPAFKIHGRAVDKLQSQ
soluble on expression in E. coli: not soluble

MTIYDINFAELYQQHLIACNHYNLPPIKWDKKAVKMAENLVGKPSAYNQQLLQAMNVQTDEAVLDIGCGPGTFAVPLAQQGSTVYALDYSNGMLDCLAQFKQKFGLHHLTTFHKSWADNWDDVPQADVVLASRSTLVDDLDDMIEKLCAKAKKRVFLTSVTQRHFLDEGVFEAIGREDIGFPTYIYLLNRLYQKGIQANLNFIETESGCFQGESYEDLLASVEFSLGELSEKEKQGLKAFYDRKQANNEPISHGQKKWALIWWNVDRILEHHHHHH
soluble on expression in E. coli: soluble

MSNPLFPTESAALTLDGPVGPLDVAVDLPEPDVAVQPVTAIVCHPLSTEGGSMHNKVVTMAARALRELGITVVRFNFRSVGTSAGSFDHGDGEQDDLRAVAEWVRAQRPTDTLWLAGFSFGAYVSLRAAAALEPQVLISIAPPAGRWDFSDVQPPAQWLVIQGDADEIVDPQAVYDWLETLEQQPTLVRMPDTSHFFHRKLIDLRGALQHGVRRWLPATP
soluble on expression in E. coli: soluble

LAEGKEIPCFALTSPEAGSDAGSIPDYGVVTKGMWEGEEVVGMRITWNKRYITLAPVATVLGLAFKLQDPDGLLGDKKDLGITCALIPTDLDGVKIGRRHFPLNVPFQNGPTQGNDLFVPLDYIIGG
soluble on expression in E. coli: not soluble

VTSPLLPQIGVDPPERGDAARNRRLLLDAAALLVAERGVDAVTMDAVACRAGVGKGTVFRRFGSRSGLMHALLDHTERELQQSFMFGPPPLGPGADPIDRLIAYGHARIAIVEVQGEVQRAAENSVEFRFAAPARAVSVRHVVSLLRAAGVRCDHELLACSLLAPLEATLVLHELRDLGMSVERLGAAWEDLIRRVTRC
soluble on expression in E. coli: not soluble

MKFLTVSDDMNFLRQVNTLVAGKGDMDSVIIGEGDAKGLGSKVLYRAKKGTPFDAVSEGILKIAGNYDYIAIGSTEVGREIAGYLSFKTGFYTATEIFSLEFNGQKAHTKRFFYGGKTVIEEESDARILTVAPGVIEAKDLGTTPEIRDLEIGQSRIKITKFVSKAGGSVRLEDAKVIVSVGRGIGSKENIAKIEPLAKALNGEIAGSRPVCMDYGWLSEDRQVGLSGKKVSPKVYIALGISGQIQHIAGMRNSKTVIAINKDKNAPIFQECDYGIVGDLFTVVPKILEQLKQ
soluble on expression in E. coli: not soluble

MRVVVLMGGRSSEREISLKTGKAVAKALRELGHEVYELDLDKELPCKLLEIKPDKVFIALHGRYGEDGTVQGLLEILDIPYTGSDTIASAVSIDKDFTKRIVKSLGINTPDWETFISEGDVLNTEWNKFPAVVKPVREGSSVGLKIVESLEELKEYALDLLKKTERVMVEEFVEGRDMTVGILKGEALPVVEIIPKKGVYDYECKYTKGMSEYRILKDEKLSKKLQEISLKISKFLSLKDFARIDFRVTKEGKIFFLEVNTIPGMTELSLLPMAAKEKGMDFKKLISIIIT
soluble on expression in E. coli: soluble

GEGLGEEVIEEVYEELLSSFDTEYGGFSGAPKFPTPHKISFLLRYWRRSRNPEALHMAEYTLDKMRRGGIYDHLGSGFHRYSTDSMWLLPHFEKMLYDQALTAIAYTEAYQVTGKDLYKETAEGILDYVLRDLTSPEGGFYCGEDADVEREEGKYYLWTLEEIRSILDPEDSELIIKMFNLREEGNFEEEIRGRETGTNLFYMARSPGSLAAKMKIPVEEVEKKVKAAREKLLKARYERKRPSLDDKILTDWNGLMIAAFAKGYQVFGEQRYLKAAEKAADFILMALYSPGDGLLHRYRDGVAGISGTSDDYAFLIHGLLELYEAGFKMRYLKAAVSLNSELLECFWDPVNGGLYFTANDSEALIFRKKE
soluble on expression in E. coli: not soluble

MLTMSKAVESLQRFLMPKAGEPHDVRMLYLIESEHNNGRAMWNDRHSVAISAGDEVSFQTYFNAFPASYWRRWTQLDNVILRVEVTGTARVDVFRTKIDGASYAEQGQVVSDGVVEFDLSLAPFEDGGWLWFYVTAETDVTFKAGWYAPQAPQPQVMPDGSQVGPFDKRVTVGIPTFNRPTDAVAALTALSEDPEVDAVIDAVIMPDQGNKHPADEPGYKEATEHFGDRFFEFRQGNLGGSGGYSRIMYEALGGVDGTKPAGAAQSPYILYMDDDIAIEPDSVLRALQVARYAKSPILVGGQMLSLQERSHLHSMGEVVDRNIFMWTSAPFVHYDHDFAKYPLSDRPSPDAPSDRPKTEDLHRRIDVDYNGWWMCMIPRVVAEQIGQPLPLFIKWDDAEYGLRAGNAGFATATWPGVAIWHLAWSDKDDAIDWQAYFHLRNRLIVGAIENGNPAGMVRSMQKATLKHLLCLEYSTVAVQNEAMKDFLAGPSHLFDILETSLPHINALRKNYSDAVVLPSAADLPRPSGAPGVPTVYNLSGPLAPVKKVGWLLKGIKHTLSKENPQHHDVPQANLAPINARWFSLSRLDGATVSTADGRGVVYRKRDRAQAKELLQESYRLQKEVAANFDRLREEYRAAHKELTSREAWAKIFEEPQGAEES
soluble on expression in E. coli: not soluble

MQVNIILLAAGKGQRFQSSSPNKIGCATIKQLARINDKPLIVHSIDKLQPLLKNAYVHNFFVTLGANKNAIQTVLPQDISVIASQHWAEGMGHTLAESVHSIKATSSHVLVALADQALITTEHYQELLSASKEQPNKIIATLCEGQLMAPAIFPEKYFPLLVKIQGDKGAGKLLLQHAKKADAITCEDAKIDIDTFSDLERVRQHLEYALQDNQQSSL
soluble on expression in E. coli: not soluble

MYEYCRKRGLYPDAESYPWKSNAHYWLVTNLYQNMRANALADAELRRKAADELTCMTARINRGETIPEPVKQLPVMGGRPLNRAQALAKIAEIKAKFGLKGASVLEHHHHHH
soluble on expression in E. coli: not soluble

MGSDKIHHHHHHMATENKIKYFENREDWRKWLMDNFETEDEIWFVFPLKSSGEKSIAYNDAVEEALCFEWIDSTIKPLDKEHRIQRFTPRKPKSTYSQANKERLKWLLANKMIHPEFEDKIRTVLSDPFIFPNDIMDRLKEDEIAWRNYRHFSDAYKRIRIAYIEAARKRPEEFEKRLNNFICKVKENKMITGFGGIEKYY
soluble on expression in E. coli: not soluble
